Data from US20230020729A1 (Memorial Sloan Kettering, published 2023).
Numbering of substitutions follows the chain as printed.

T1: human Fc Receptor-Like 5 (FcRL5), full length, expressed on cells (human, UniProt Q96RD9 16-977)
T1 construct: also called CD307e; IRTA2
T1 sequence: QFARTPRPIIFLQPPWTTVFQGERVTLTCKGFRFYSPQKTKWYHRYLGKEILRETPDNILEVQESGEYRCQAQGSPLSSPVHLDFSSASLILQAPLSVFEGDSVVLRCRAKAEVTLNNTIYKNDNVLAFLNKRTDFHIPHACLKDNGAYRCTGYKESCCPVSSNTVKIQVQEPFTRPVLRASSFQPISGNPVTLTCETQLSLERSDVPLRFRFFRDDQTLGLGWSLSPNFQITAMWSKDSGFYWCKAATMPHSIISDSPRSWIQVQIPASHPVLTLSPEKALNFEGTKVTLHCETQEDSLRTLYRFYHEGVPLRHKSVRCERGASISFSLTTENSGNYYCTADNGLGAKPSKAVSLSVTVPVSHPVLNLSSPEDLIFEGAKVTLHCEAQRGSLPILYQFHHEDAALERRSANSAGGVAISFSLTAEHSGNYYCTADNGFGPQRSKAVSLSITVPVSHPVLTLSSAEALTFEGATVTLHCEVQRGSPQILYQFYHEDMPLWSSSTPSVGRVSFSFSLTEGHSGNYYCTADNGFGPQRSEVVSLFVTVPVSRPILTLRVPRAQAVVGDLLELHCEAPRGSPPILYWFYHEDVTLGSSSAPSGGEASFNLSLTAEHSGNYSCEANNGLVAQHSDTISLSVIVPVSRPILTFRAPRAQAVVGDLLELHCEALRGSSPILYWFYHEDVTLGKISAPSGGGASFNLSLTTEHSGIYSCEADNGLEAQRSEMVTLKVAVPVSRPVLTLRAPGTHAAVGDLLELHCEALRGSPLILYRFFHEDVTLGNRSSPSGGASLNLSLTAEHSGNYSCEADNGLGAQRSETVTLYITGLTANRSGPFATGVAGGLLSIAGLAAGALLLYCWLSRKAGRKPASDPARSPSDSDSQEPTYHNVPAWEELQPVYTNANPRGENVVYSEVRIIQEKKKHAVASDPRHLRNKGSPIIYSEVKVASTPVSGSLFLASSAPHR

B1: ET200-099 scFv (scFv)
scFv: QSVLTQPPSASGTPGQRVTISCSGSSSNIGSNTVNWYQQLPGTAPKLLIYSNDQRPSGVPDRFSGSKSGTSASLAISGLQSEDEADYYCASWDDSLNGRYVFGTGTKVTVLGSRGGGGSGGGGSGGGGSLEMAQVQLVQSGAEVRKPGASVKVSCKTSGYTFSWYAIHWVRQAPGQRLEWMGWINAGNGNTKYSQKFQGRVSLTRDTSASTAYMELSSLRSDDTAVYYCARPDNYGSGGDVFDIWGQGTMVTVSS
notes: VL-linker-VH; screened as scFv phage clone
B2: ET200-007 scFv (scFv)
scFv: SYVLTQPLSVSVAPGKTARITCGGNNIGSKTVHWYQQKPGQAPVLVIYYDSDRPSGIPERFSGSNSGNTATLTISRVEAGDEADYYCQVWDSSSDHRVFGGGTKLTVLGSRGGGGSGGGGSGGGGSLEMAQVQLQESGPGLVKPSETLSLTCNVSGYSISSGYFWGWIRQPPGKGLEWIGSIYHSRSTYYNPSLKSRVTISVDTSKNQFSLKLNSVTAADTAVYYCARGYGYFDYWGQGTLVTVSS
notes: as for B1
B3: ET200-101 scFv (scFv)
scFv: QAVLTQPPSASGAPGQRVTVSCSGSNSNIGSNYVNWYQQFPGTAPKLLMYSSSQRPSGVPDRFSGSKSGTSASLAISGLHSEDEADYYCATWDDSLNAWVFGGGTKLTVLGSRGGGGSGGGGSGGGGSLEMAEVQLVQSGAEVRKPGASVKVSCKTSGYTFTWYAIHWVRQAPGQRLEWMGWINAGSGNTKYSQKFQGRVTLTRDTSASTAYMELSSLRSDDTAVYYCARPNNYGSGGDVFDIWGQGTMVTVSS
notes: as for B1
B4: ET200-008 scFv (scFv)
scFv: QSALTQPASVSGSPGQSITISCTGTSSDVGGYNYVSWYQQHPGKAPKLMIYDVSNRPSGVSNRFSGSKSGNTASLTISGLQAEDEADYYCSSYTSSSTSKVFGGGTKLTVLGSRGGGGSGGGGSGGGGSLEMAEVQLVESGGGVVRPGGSLRLSCAASGFTFGDYGMSWVRQAPGKGLEWVSGINWNGGSTGYADSVKGRFTISRDNAKNSLYLQMNSLRAEDTAVYYCARSKYNFHVYYDYWGQGTLVTVSS
notes: as for B1
B5: ET200-105 scFv (scFv)
scFv: SYVLTQPPSVSVSPGQTASITCSGDRLTNKYVSWYQQKPGQSPVLVIYEDAKRPSGIPARFSGSNSGNTATLTISGTQAMDESEYYCQAWDSSVVVFGGGTKLTVLGSRGGGGSGGGGSGGGGSLEMAEVQLVESGGGLVQPGRSLRLSCAASGFTFDDYAMHWVRQAPGKGLEWVSGISWNSGSIGYADSVKGRFTISRDNAKNSLYLQMNSLRDEDTALYYCAKDRGGGVIVKDAFDIWGQGTMVTVSS
notes: as for B1
B6: ET200-108 scFv (scFv)
scFv: QSVLTQPPSVSAPPGQKVTISCSGSSSNIGNNYVSWYQQFPGTAPKLLIYDNNKRPSGISDRFSGSKSGTSATLGIAGLQTGDEADYYCGTWDTSLSGFYVFGSGTKVTVLGSRGGGGSGGGGSGGGGSLEMAEVQLVQSGAEVKKPGASVKVSCKASGYTFTSYTISWVRQAPGQGLEWMGWISTYNGLTNYAQNLQGRVTMTTDTFTTTAYMELRSLRSDDTAVYYCVREGSPDYGDFASFDYWGQGTLVTVSS
notes: as for B1
B7: ET200-098 scFv (scFv)
scFv: QPVLTQPPSVSKGLRQTATLTCTGNSNNVGNLGVAWLQQHQGHPPKLLSYRNNNRPSGISERLSASRSGNTASLTITGLQPEDEADYYCSAWDSSLSAWVFGGGTKLTVLGSRGGGGSGGGGSGGGGSLEMAEVQLVESGGVVVQPGGSLRLSCAASGFTFDDYAMHWVRQAPGKGLEWVSLINWDGGSTYYADSVKGRFTISRDNSKNSLYLQMNSLRAEDTALYYCAKGMGLRAFDYWGQGTLVTVSS
notes: as for B1
B8: ET200-100 scFv (scFv)
scFv: NFMLTQPHSVSESPGKTVTISCTRSSGSIASNFVQWYQQRPGSAPTPMIYEDNNRPPGVPDRFSASVDSSSNSASLTISGLKTEDEADYYCQSYDTSNVVFGGGTKLTVLGSRGGGGSGGGGSGGGGSLEMAEVQLVESGGGLVQPGGSLRLSCAASGFTFSSYEMNWVRQAPGKGLEWVSYISSSGSTIYYADSVKGRFTISRDNAKNSLYLQMNSLRAEDTAVYYCARWDYGMDVWGQGTTVTVSS
notes: as for B1
B9: ET200-104 scFv (scFv)
scFv: B8 scFv with F33Y, P47T, M48V, N54Q, P57S, A65G, V67I, T96S, L107V
notes: as for B1
B10: ET200-109 scFv (scFv)
scFv: LPVLTQPPSASATPGQRVTISCSGTTSNIGSNTVHWYQQLPGTAPKLLIYNNNQRPSGVPDRFSGSKSGTSASLAISGLRSEDEATYSCATWDDSLSGVVFGGGTKLTVLGSRGGGGSGGGGSGGGGSLEMAEVQLVQSGAEVKKPGSSVKVSCKASGGTFSSYAISWVRQAPGQGLEWMGGIIPIFGTANYAQKFQGRVTITADESTSTAYMELSSLRSEDTAVYYCARDPAYGDYEYDAFDIWGQGTMVTVSS
notes: as for B1
B11: ET200-110 scFv (scFv)
scFv: QSVLTQPPSASGTPGQRVTISCSGSSSNIGTNGVNWFQQFPGTAPKLLIYTNDQRPSGVPDRFSGSKSGTSASLAISGLQSADEADYYCAVWDHSLNGPVFGGGTKLTVLGSRGGGGSGGGGSGGGGSLEMAQVQLVQSGAEVKKPGSSVKVSCKASGGTFSSYAISWVRQAPGQGLEWMGGIIPIFGTANYAQKFQGRVTITADESTSTAYMELSSLRSEDTAVYYCARGAGFDAFDIWGQGTMVTVSS
notes: as for B1
B12: ET200-081 scFv (scFv)
scFv: QSALTQPASVSGSPGQSITISCTGTSSDIGGYNYVSWYQQHPGKAPKLMIYDVSNRPSGVSNRFSGSKSGNTASLTISGLQAEDEADYYCISYTRTWNPYVFGSGTKVTVLGSRGGGGSGGGGSGGGGSLEMAEVQLVQSGGGVVQPGGSLRLSCAASGFTFDDYAMHWVRQAPGKGLEWVSLISGDGGSTYYADSVKGRFTISRDNSKNSLYLQMNSLRTEDTALYYCAKDRAAAGYYYYGMDVWGQGTTVTVSS
notes: as for B1
B13: ET200-102 scFv (scFv)
scFv: QSVVTQPPSVSAAPGQKVTISCSGSSSNIGNNYVSWYQQLPGTAPKLLIYDNNKRPSGIPDRFSGSKSGTSATLGITGLQTGDEADYYCGTWDSSLSAYVFGTGTKVTVLGSRGGGGSGGGGSGGGGSLEMAQVQLVQSGAEVKKPGASVKVSCKASGYTFTNYALHWVRQAPGQGLEWMAWINGGNGNTKYSQNFQGRVTITRDTSASTAYMELSSLRSEDTAVYYCAKPEETAGTIHFDYWGQGTPVTVSS
notes: as for B1
B14: ET200-097 scFv (scFv)
scFv: LPVLTQPPSVSVSPGQTAIITCSGDKLGEKYVSWYQQKPGQSPVLVIDQDTRRPSGIPERFSGSNSGTTATLTISGTQAMDEADYYCQAWDRGVVFGGGTKLTVLGSRGGGGSGGGGSGGGGSLEMAEVQLVESGGDLVQPGRSLRLSCAASGFTFNDYAMHWVRQAPGKGLEWVSGISWSGNNIGYADSVKGRFTISRDNAKNSLYLQMNSLRAEDTALYYCAKDSIRYGITWGGFDYWGQGTLVTVSS
notes: as for B1
B15: ET200-112 scFv (scFv)
scFv: QAVLTQPPSASGTPGQRVTISCSGSSSNIGSNTVNWYQQLPGTAPKLLMYSNDQRPSGVPDRFSGSKSGTSASLAISGLQSEDEADYYCAAWDDSLNGYVFAAGTQLTVLSSRGGGGSGGGGSGGGGSLEMAQVQLQQWGAGLLKPSETLSLTCAVYGGSFSGYYWSWIRQPPGKGLEWIGEINHSGSTNYNPSLKSRVTISVDTSKNQFSLKLSSVTAADTAVYYCAREGLDAFDIWGQGTMVTVSS
notes: as for B1
B16: ET200-103 scFv (scFv)
scFv: QAVLTQPHSVSESPGKTVTISCTRSSGSIASNYVQWYQQRPGSAPTTVIYEDNQRPSGVPDRFSGSIDSSSNSASLTISGLKTEDEADYYCQSYDSTITVFGGGTKLTVLGSRGGGGSGGGGSGGGGSLEMAQVQLVQSGAEVKKPGSSVKVSCKASGGTFSSYAISWVRQAPGQGLEWMGGIIPIFGTANYAQKFQGRVTITADESTSTAYMELSSLRSEDTAVYYCAGEGYYDSSGYSNGDAFDIWGQGTMVTVSS
notes: as for B1
B17: ET200-106 scFv (scFv)
scFv: SYELTQPPAASGTPGQRVTISCSGGVSNIGSGALNWYQQLPGTAPKLLIYSYNQRPSGVSDRFSGSRSATSASLAISGLQSEDEADYYCATWDDSVNGWVFGGGTKLTVLGSRGGGGSGGGGSGGGGSLEMAEVQLVESGAEVKKPGDSVKVSCKPSGYNFLNYGINWVRQAPGQGLEWMGWISTYTGNTNYAQKLQGRVTFTTDTSTSTAYMEMRSLRSDDTAVYYCARQQGGGWYDVWGQGTLVTVSS
notes: as for B1
B18: ET200-107 scFv (scFv)
scFv: QSVVTQPPSVSAAPGEKVTISCSGSNFNVGNNDVSWYQQLPGAAPKLLIYDNNKRPSGIPDRFSGSKSGTSATLDITGLHSDDEADYYCGTWDSSLNTGGVFGTGTKVTVLGSRGGGGSGGGGSGGGGSLEMAEVQLVQSGAEVKKPGASVKVSCKASGYTFTSYTISWVRQAPGQGLEWMGWISTYNGLTNYAQNLQGRVTMTTDTFTTTAYMELRSLRSDDTAVYYCVREGSPDYGDFASFDYWGQGTLVTVSS
notes: as for B1

Target: T1, human Fc Receptor-Like 5 (FcRL5), full …
Assay: scFv phage: ELISA on His-tag FcRL5, flow cytometry on FcRL5-overexpressing 3T3 and Raji cells

Binder	binding result
B1	binds
B2	binds
B3	binds
B4	binds
B5	binds
B6	binds
B7	binds
B8	binds
B9	binds
B10	binds
B11	binds
B12	binds
B13	binds
B14	binds
B15	binds
B16	binds
B17	binds
B18	binds
